# From paper PMC8298602, “14-3-3-protein regulates Nedd4-2 by modulating interactions between HECT and WW domains” (Communications Biology, 2021)
# T1: 14-3-3β (human, UniProt P31946 1-246)
# T1 construct: 14-3-3 protein beta, human
# T1 sequence (looked up): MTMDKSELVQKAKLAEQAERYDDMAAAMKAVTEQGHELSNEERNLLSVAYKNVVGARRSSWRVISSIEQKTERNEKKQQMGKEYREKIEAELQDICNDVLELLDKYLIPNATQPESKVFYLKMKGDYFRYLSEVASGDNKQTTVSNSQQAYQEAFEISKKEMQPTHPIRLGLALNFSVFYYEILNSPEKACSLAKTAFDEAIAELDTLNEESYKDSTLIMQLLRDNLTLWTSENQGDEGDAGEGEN
# T2: 14-3-3γ (human, UniProt P61981 2-247)
# T2 construct: 14-3-3 protein gamma, human
# T2 sequence: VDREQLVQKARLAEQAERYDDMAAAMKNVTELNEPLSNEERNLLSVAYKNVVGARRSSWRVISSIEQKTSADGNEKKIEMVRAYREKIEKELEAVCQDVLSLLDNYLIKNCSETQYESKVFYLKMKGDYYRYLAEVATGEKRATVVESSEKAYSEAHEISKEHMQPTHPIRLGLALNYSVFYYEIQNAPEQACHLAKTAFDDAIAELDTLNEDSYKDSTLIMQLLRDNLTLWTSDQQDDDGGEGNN
# T3: 14-3-3ε (human, UniProt P62258 1-255)
# T3 construct: 14-3-3 protein epsilon, human
# T3 sequence (looked up): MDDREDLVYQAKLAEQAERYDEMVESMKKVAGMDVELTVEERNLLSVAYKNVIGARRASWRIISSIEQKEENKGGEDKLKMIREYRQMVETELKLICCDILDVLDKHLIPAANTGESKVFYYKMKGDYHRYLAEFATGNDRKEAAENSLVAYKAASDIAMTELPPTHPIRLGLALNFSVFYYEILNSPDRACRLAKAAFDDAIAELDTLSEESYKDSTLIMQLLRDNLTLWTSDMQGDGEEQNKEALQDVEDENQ
# T4: 14-3-3ζ (human, UniProt P63104 1-245)
# T4 construct: 14-3-3 protein zeta, human
# T4 sequence (looked up): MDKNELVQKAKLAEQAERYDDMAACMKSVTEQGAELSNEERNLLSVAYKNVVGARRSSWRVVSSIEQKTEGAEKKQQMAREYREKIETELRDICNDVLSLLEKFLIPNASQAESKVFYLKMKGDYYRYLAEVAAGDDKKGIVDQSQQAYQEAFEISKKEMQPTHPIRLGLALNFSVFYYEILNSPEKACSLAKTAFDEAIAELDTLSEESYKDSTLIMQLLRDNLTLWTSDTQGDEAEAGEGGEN
# T5: 14-3-3σ (human, UniProt P31947 1-248)
# T5 construct: 14-3-3 protein sigma, human
# T5 sequence (looked up): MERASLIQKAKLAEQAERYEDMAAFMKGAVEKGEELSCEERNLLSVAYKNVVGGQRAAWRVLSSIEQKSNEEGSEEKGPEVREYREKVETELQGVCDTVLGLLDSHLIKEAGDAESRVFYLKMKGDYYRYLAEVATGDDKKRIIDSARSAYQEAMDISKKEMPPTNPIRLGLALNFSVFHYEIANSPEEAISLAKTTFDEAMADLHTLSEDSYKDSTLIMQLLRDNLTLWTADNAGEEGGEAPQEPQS
# T6: 14-3-3τ (human, UniProt P27348 1-245)
# T6 construct: 14-3-3 protein tau (theta), human
# T6 sequence (looked up): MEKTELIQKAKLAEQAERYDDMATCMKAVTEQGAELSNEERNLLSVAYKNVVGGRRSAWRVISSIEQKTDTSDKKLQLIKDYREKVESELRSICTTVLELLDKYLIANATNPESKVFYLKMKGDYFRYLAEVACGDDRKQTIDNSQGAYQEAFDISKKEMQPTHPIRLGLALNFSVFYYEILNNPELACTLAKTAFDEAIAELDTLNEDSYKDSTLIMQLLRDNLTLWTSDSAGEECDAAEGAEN
# B1: 14-3-3η (natural protein, human)
# chain: MGDREQLLQRARLAEQAERYDDMASAMKAVTELNEPLSNEDRNLLSVAYKNVVGARRSSWRVISSIEQKTMADGNEKKLEKVKAYREKIEKELETVCNDVLSLLDKFLIKNCNDFQYESKVFYLKMKGDYYRYLAEVASGEKKNSVVEASEAAYKEAFEISKEQMQPTHPIRLGLALNFSVFYYEIQNAPEQACLLAKQAFDDAIAELDTLNEDSYKDSTLIMQLLRDNLTLWTSDQQDEEAGEGN
# notes: 14-3-3 protein eta, human; also called 14-3-3 protein (eta isoform); 14-3-3η dimer
# Columns and labels:
# 14-3-3β = molecular target: T1, 14-3-3β; test: native gel or EMSA; 12% native TBE-PAGE; 240 pmol of 14-3-3 and 120 pmol of the Nedd4-2 construct loaded; details: both partners purified
# 14-3-3γ = molecular target: T2, 14-3-3γ; test: as above; details: both partners purified
# 14-3-3ε = molecular target: T3, 14-3-3ε; test: as above; details: both partners purified
# 14-3-3ζ = molecular target: T4, 14-3-3ζ; test: as above; details: both partners purified
# 14-3-3σ = molecular target: T5, 14-3-3σ; test: as above; details: both partners purified
# 14-3-3τ = molecular target: T6, 14-3-3τ; test: as above; details: both partners purified
# 14-3-3η [1] = molecular target: B1; test: AUC; sedimentation velocity, 20 °C, 20 mM Tris-HCl pH 7.5, 150 mM NaCl, 1 mM TCEP; 1 μM 14-3-3η with Nedd4-2^335–455 variants (0.05 – 5 μM); apparent KD, sw isotherm fitted with A + B ⇌ AB, 14-3-3η dimer + one Nedd4-2 molecule; details: both partners purified
# 14-3-3η [2] = molecular target: B1; test: native gel or EMSA; 12% native TBE-PAGE; 240 pmol of 14-3-3 and 120 pmol of the Nedd4-2 construct loaded; details: both partners purified
# [3] = molecular target: the molecule itself; test: SEC-SAXS; Superdex 200 Increase 5/150 GL, 20 mM Tris-HCl pH 7.5, 150 mM NaCl, 1 mM TCEP, 3% glycerol, 293.15 K; loaded 2.2 mg/ml Nedd4-2^186–975, 2 mg/ml 14-3-3η, 8.9 mg/ml complex (1:2, 60 μM)
binder,measurement,setting,value
"phosphorylated Nedd4-2^335–455 (domain or fragment, human, UniProt Q96PU5 335-455, looked up, phosphoserine at 342, phosphothreonine at 367, phosphoserine at 448, source: E. coli BL21 (DE3), purified (Chelating Sepharose, TEV cleavage, Superdex 75), phosphorylated by PKA in vitro; not shown: His6, N-terminal, cleaved; GB1 domain of protein G, N-terminal, cleaved) SSRLRSCSVTDAVAEQGHLPPPSAPAGRARSSTVTGGEEPTPSVAYVHTTPGLPSGWEERKDAKGRTYYVNHNNRTTTWTRPIMQLAEDGASGSATNSNNHLIEPQIRRPRSLSSPTVTLS",binding result,14-3-3β,binds
same,binding result,14-3-3γ,binds
same,binding result,14-3-3ε,binds
same,binding result,14-3-3ζ,binds
same,binding result,14-3-3σ,binds
same,binding result,14-3-3τ,binds
same,Kd,14-3-3η [1],< 30 nM
same,stoichiometry N,14-3-3η [1],2 14-3-3η protomers per Nedd4-2 protomer
"Nedd^335-455pT367 (domain or fragment, human, UniProt Q96PU5 335-455, looked up, phosphothreonine at 367, source: E. coli BL21 (DE3), purified (Chelating Sepharose, TEV cleavage, Superdex 75), phosphorylated by PKA in vitro; not shown: His6, N-terminal, cleaved; GB1 domain of protein G, N-terminal, cleaved) SSRLRSCAVTDAVAEQGHLPPPSAPAGRARSSTVTGGEEPTPSVAYVHTTPGLPSGWEERKDAKGRTYYVNHNNRTTTWTRPIMQLAEDGASGSATNSNNHLIEPQIRRPRSLASPTVTLS",Kd,14-3-3η [1],530 ± 30 nM
"Nedd^335-455pS342 (domain or fragment, human, UniProt Q96PU5 335-455, looked up, phosphoserine at 342, source: E. coli BL21 (DE3), purified (Chelating Sepharose, TEV cleavage, Superdex 75), phosphorylated by PKA in vitro; not shown: His6, N-terminal, cleaved; GB1 domain of protein G, N-terminal, cleaved) SSRLRSCSVTDAVAEQGHLPPPSAPAGRARSSAVTGGEEPTPSVAYVHTTPGLPSGWEERKDAKGRTYYVNHNNRTTTWTRPIMQLAEDGASGSATNSNNHLIEPQIRRPRSLASPTVTLS",Kd,14-3-3η [1],400 ± 100 nM
"Nedd^335-455pT367 + pS448 (domain or fragment, human, UniProt Q96PU5 335-455, looked up, phosphothreonine at 367, phosphoserine at 448, source: E. coli BL21 (DE3), purified (Chelating Sepharose, TEV cleavage, Superdex 75), phosphorylated by PKA in vitro; not shown: His6, N-terminal, cleaved; GB1 domain of protein G, N-terminal, cleaved) SSRLRSCAVTDAVAEQGHLPPPSAPAGRARSSTVTGGEEPTPSVAYVHTTPGLPSGWEERKDAKGRTYYVNHNNRTTTWTRPIMQLAEDGASGSATNSNNHLIEPQIRRPRSLSSPTVTLS",binding result,14-3-3η [2],binds
"Nedd^335-455pS342 + pT367 (domain or fragment, human, UniProt Q96PU5 335-455, looked up, phosphoserine at 342, phosphothreonine at 367, source: E. coli BL21 (DE3), purified (Chelating Sepharose, TEV cleavage, Superdex 75), phosphorylated by PKA in vitro; not shown: His6, N-terminal, cleaved; GB1 domain of protein G, N-terminal, cleaved) SSRLRSCSVTDAVAEQGHLPPPSAPAGRARSSTVTGGEEPTPSVAYVHTTPGLPSGWEERKDAKGRTYYVNHNNRTTTWTRPIMQLAEDGASGSATNSNNHLIEPQIRRPRSLASPTVTLS",binding result,14-3-3η [2],binds
"Nedd^335-455pS448 (domain or fragment, human, UniProt Q96PU5 335-455, looked up, phosphoserine at 448, also called pSer^448; source: E. coli BL21 (DE3), purified (Chelating Sepharose, TEV cleavage, Superdex 75), phosphorylated by PKA in vitro; not shown: His6, N-terminal, cleaved; GB1 domain of protein G, N-terminal, cleaved) SSRLRSCAVTDAVAEQGHLPPPSAPAGRARSSAVTGGEEPTPSVAYVHTTPGLPSGWEERKDAKGRTYYVNHNNRTTTWTRPIMQLAEDGASGSATNSNNHLIEPQIRRPRSLSSPTVTLS",binding result,14-3-3η [2],binds
"Nedd^335-455pS342 + pS448 (domain or fragment, human, UniProt Q96PU5 335-455, looked up, phosphoserine at 342, phosphoserine at 448, The same variant was used in native PAGE, SV-AUC and for the crystal with 14-3-3ηΔC; source: E. coli BL21 (DE3), purified (Chelating Sepharose, TEV cleavage, Superdex 75), phosphorylated by PKA in vitro; not shown: His6, N-terminal, cleaved; GB1 domain of protein G, N-terminal, cleaved) SSRLRSCSVTDAVAEQGHLPPPSAPAGRARSSAVTGGEEPTPSVAYVHTTPGLPSGWEERKDAKGRTYYVNHNNRTTTWTRPIMQLAEDGASGSATNSNNHLIEPQIRRPRSLSSPTVTLS",Kd,14-3-3η [1],< 30 nM
B1,stoichiometry N,[3],2
